Experimental data reported in the supplement of paper PMC12764529.
± gives the half width of the 95% confidence interval.

Tests used:
[1] = folding stability dG unfold from chymotrypsin proteolysis; higher = more stable
How it was run: (§1)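 K50 was inferred by Bayesian fitting of sequencing counts obtained after protease digestion of designed mini-proteins. Unfolding free energy was derived by comparison with a sequence-predicted unfolded-state K50 and a shared folded-state K50, for each protease or both combined. The mini-proteins were under 80 residues, had no cysteine, were carried in a PA-tagged cDNA display construct, and were kept only if AlphaFold2 dimer inter-PAE exceeded 15.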

[2] = folding stability dG unfold (combined trypsin and chymotrypsin); higher = more stable
How it was run: as §1

[3] = folding stability dG unfold from trypsin proteolysis; higher = more stable
How it was run: as §1

SAGGSAGGSAGMKPNEPDLVLLTTTVTLTTTETTTDEDGNTYTTTTTTTLTTTTLLPRGTSAGGSAGGSAGG [r17_523_TrROS_Hall]
folding stability dG unfold [1]: 3.94 ± 0.087 kcal/mol
folding stability dG unfold [2]: 3.63 ± 0.1 kcal/mol
folding stability dG unfold [3]: 2.77 ± 0.17 kcal/mol

SAGGSAGGSAGMKSTVTQPGDTWTITITDPETGEVTTYTLTPAQLGELAASSRPVAVAPGSAGGSAGGSAGG [r11_741_JUSTAS]
folding stability dG unfold [1]: 1.5 ± 0.086 kcal/mol
folding stability dG unfold [2]: 1.24 ± 0.058 kcal/mol
folding stability dG unfold [3]: 0.614 ± 0.053 kcal/mol

SAGGSAGGSAGMKTITKKVKSEEEAKKLAEELKKKGYKVEVEVKKDPKTGNYIVTITIELPESAGGSAGGSA [r18_455_JUSTAS]
folding stability dG unfold [1]: 3.89 ± 0.19 kcal/mol
folding stability dG unfold [2]: 3.91 ± 0.39 kcal/mol
folding stability dG unfold [3]: 3.32 ± 0.18 kcal/mol

SAGGSAGGSAGMKTYTAEEIKNLPPGAKVIEVDGKLKIEIDGKIYTIEPGETVEIEPLEESAGGSAGGSAGG [r17_91_TrROS_Hall]
folding stability dG unfold [1]: 2.04 ± 0.043 kcal/mol
folding stability dG unfold [2]: 1.89 ± 0.11 kcal/mol
folding stability dG unfold [3]: 1.57 ± 0.078 kcal/mol

SAGGSAGGSAGMKVEIEVYELPGGERPVKITVTYENKPKEYEKEAETEEEAEEFAKELLESAGGSAGGSAGG [r11_560_JUSTAS]
folding stability dG unfold [1]: 0.039 ± 0.58 kcal/mol
folding stability dG unfold [2]: -0.0487 ± 0.57 kcal/mol
folding stability dG unfold [3]: -0.237 ± 0.23 kcal/mol

SAGGSAGGSAGMKVELSVAPDPATGEPVLLFHFEDFTLALNPNTGAIGVYLKDEVELFELSAGGSAGGSAGG [r17_544_TrMRF]
folding stability dG unfold [1]: 1.98 ± 0.1 kcal/mol
folding stability dG unfold [2]: 2.03 ± 0.14 kcal/mol
folding stability dG unfold [3]: 2 ± 0.13 kcal/mol

SAGGSAGGSAGMKVLVLRIRIERPEEELSEEDRAKLPPVRIEIELVEVELPPEVEVREEESAGGSAGGSAGG [r17_310_TrROS_Hall]
folding stability dG unfold [1]: 3.86 ± 0.11 kcal/mol
folding stability dG unfold [2]: 3.43 ± 0.2 kcal/mol
folding stability dG unfold [3]: 2.44 ± 0.14 kcal/mol

SAGGSAGGSAGMLWIHDPESGTLVMLHPKPDGEVNVQVWQFDPDNGKPEIKTVPADNIEASAGGSAGGSAGG [r11_285_TrROS]
folding stability dG unfold [1]: 1.22 ± 0.18 kcal/mol
folding stability dG unfold [2]: 0.924 ± 0.091 kcal/mol
folding stability dG unfold [3]: 0.376 ± 0.046 kcal/mol

SAGGSAGGSAGMMVVRAKIKLPNGEVLEIENMSLEEILALAKEKGYEIVDIEVVAPDEEPSAGGSAGGSAGG [r11_283_TrMRF]
folding stability dG unfold [1]: 4.07 ± 0.14 kcal/mol
folding stability dG unfold [2]: 4.37 ± 0.26 kcal/mol
folding stability dG unfold [3]: 4.77 ± 0.77 kcal/mol

SAGGSAGGSAGMNITITFPDGTVVEIPDVPPEYADVTPEKLKEEVLKKYPNVNVKVSPNGSAGGSAGGSAGG [r17_42_JUSTAS]
folding stability dG unfold [1]: 0.127 ± 0.038 kcal/mol
folding stability dG unfold [2]: 0.101 ± 0.22 kcal/mol
folding stability dG unfold [3]: 0.302 ± 0.055 kcal/mol

SAGGSAGGSAGMNKKGKYTVIEELVINPKTNYLFKKKVTIYPDGKIEVKSELLGPILPTESAGGSAGGSAGG [r11_226_TrMRF]
folding stability dG unfold [1]: 1.4 ± 0.067 kcal/mol
folding stability dG unfold [2]: 1.03 ± 0.06 kcal/mol
folding stability dG unfold [3]: 0.336 ± 0.051 kcal/mol

SAGGSAGGSAGMPIEKALEQADKNGRPVQIRVPNGRDIYITVKYKNGKYKIEIMPAEEIKSAGGSAGGSAGG [r17_463_TrROS]
folding stability dG unfold [1]: 1.89 ± 0.085 kcal/mol
folding stability dG unfold [2]: 1.51 ± 0.18 kcal/mol
folding stability dG unfold [3]: 1.09 ± 0.047 kcal/mol

SAGGSAGGSAGMPPPVVVEPKRTSVVPESGLVIIPVTVFNPANGKATLTTYLYDPATGKLVLSAGGSAGGSA [r18_228_JUSTAS]
folding stability dG unfold [1]: 2.17 ± 0.058 kcal/mol
folding stability dG unfold [2]: 1.72 ± 0.12 kcal/mol
folding stability dG unfold [3]: 0.734 ± 0.17 kcal/mol

SAGGSAGGSAGMRKYTWPFRIPLGGKPFEIRVEMEYDPSSGKHRIEITPEAKDLIKKKIFSAGGSAGGSAGG [r11_91_TrROS]
folding stability dG unfold [1]: 0.839 ± 0.088 kcal/mol
folding stability dG unfold [2]: 0.875 ± 0.058 kcal/mol
folding stability dG unfold [3]: 0.59 ± 0.069 kcal/mol

SAGGSAGGSAGMRLLTVEYFDENGNPLSVEEIELYIERPPPPFLELEIDPRTGEPRFTGLSAGGSAGGSAGG [r17_348_JUSTAS]
folding stability dG unfold [1]: 1.68 ± 0.068 kcal/mol
folding stability dG unfold [2]: 1.36 ± 0.14 kcal/mol
folding stability dG unfold [3]: 1.01 ± 0.078 kcal/mol

SAGGSAGGSAGMSTTPVAYKFTFTLPGGETLEREGTDVAALKEALKAEYGAVEITVTPVSSAGGSAGGSAGG [r17_508_JUSTAS]
folding stability dG unfold [1]: 2.07 ± 0.12 kcal/mol
folding stability dG unfold [2]: 2.17 ± 0.1 kcal/mol
folding stability dG unfold [3]: 2.2 ± 0.042 kcal/mol

SAGGSAGGSAGMTFVITDKNGKETTISLEEAAKLLGIPVEEITEEELKEFLEKKVKTIEKISSAGGSAGGSA [r18_403_JUSTAS]
folding stability dG unfold [1]: 2.6 ± 0.046 kcal/mol
folding stability dG unfold [2]: 2.18 ± 0.17 kcal/mol
folding stability dG unfold [3]: 0.898 ± 0.074 kcal/mol

SAGGSAGGSAGMTIEELKAKGYKVEVVKLPDSPEEVVVVTYPVPPGGIEKSVIPLSEVKLSAGGSAGGSAGG [r17_311_JUSTAS]
folding stability dG unfold [1]: 0.601 ± 0.048 kcal/mol
folding stability dG unfold [2]: 0.375 ± 0.052 kcal/mol
folding stability dG unfold [3]: -0.00127 ± 0.025 kcal/mol

SAGGSAGGSAGMTIKEDPKTGTRVVRLPDGSVLYIEEKGDKIKKVYSDPVPPVPPGNPALASAGGSAGGSAG [r3_406_JUSTAS]
folding stability dG unfold [1]: 0.734 ± 0.048 kcal/mol
folding stability dG unfold [2]: 0.574 ± 0.061 kcal/mol
folding stability dG unfold [3]: 0.217 ± 0.026 kcal/mol

SAGGSAGGSAGMTIQIEILTTGDLEETKKKLEEELKKKYPSSLKVIIKLSHVPASEAPSDLGSAGGSAGGSA [r18_498_JUSTAS]
folding stability dG unfold [1]: 1.19 ± 0.033 kcal/mol
folding stability dG unfold [2]: 1.13 ± 0.14 kcal/mol
folding stability dG unfold [3]: 0.969 ± 0.025 kcal/mol

SAGGSAGGSAGMTLEELERLGYKVEVFRHPDTPEVYVRVEYPVPPGGLKRAVIPLKDVKLSAGGSAGGSAGG [r17_311_TrMRF]
folding stability dG unfold [1]: 0.93 ± 0.077 kcal/mol
folding stability dG unfold [2]: 0.499 ± 0.039 kcal/mol
folding stability dG unfold [3]: -1.35 ± 0.52 kcal/mol

SAGGSAGGSAGMTLEELLRKAKPGQTLTLRVRVVERNEDGSLSEREFTFTFRLELKPEDLSAGGSAGGSAGG [r11_347_TrROS_Hall]
folding stability dG unfold [1]: 3.61 ± 0.06 kcal/mol
folding stability dG unfold [2]: 3.15 ± 0.21 kcal/mol
folding stability dG unfold [3]: 2.55 ± 0.077 kcal/mol

SAGGSAGGSAGMTLEIEVDPDNKVIELKIYIGGKPVEMTIVVTPNSGYIRIPDGGWIPIESAGGSAGGSAGG [r11_395_TrROS]
folding stability dG unfold [1]: 3.37 ± 0.065 kcal/mol
folding stability dG unfold [2]: 2.85 ± 0.083 kcal/mol
folding stability dG unfold [3]: 2.1 ± 0.053 kcal/mol

SAGGSAGGSAGMTLKVEVKVKVKVFDENGKLVREEEVTVEVEIELEPAPELRFLSEEELKSAGGSAGGSAGG [r17_325_TrROS_Hall]
folding stability dG unfold [1]: 2.63 ± 0.057 kcal/mol
folding stability dG unfold [2]: 2.12 ± 0.11 kcal/mol
folding stability dG unfold [3]: 1.24 ± 0.053 kcal/mol

SAGGSAGGSAGMTLLVKNEDGYLVKIEITEVEVDENGELHLKVKVEVLPPLEEVEEVEEESAGGSAGGSAGG [r17_536_TrROS_Hall]
folding stability dG unfold [1]: 1.79 ± 0.054 kcal/mol
folding stability dG unfold [2]: 1.65 ± 0.17 kcal/mol
folding stability dG unfold [3]: 1.4 ± 0.076 kcal/mol

SAGGSAGGSAGMTLRLKIRVYDPETREEVEEKEIEVELPPGASLEELLAALPPEQVEVEFSAGGSAGGSAGG [r17_339_TrROS_Hall]
folding stability dG unfold [1]: 1.1 ± 0.2 kcal/mol
folding stability dG unfold [2]: 0.848 ± 0.15 kcal/mol
folding stability dG unfold [3]: 0.534 ± 0.12 kcal/mol

SAGGSAGGSAGMTLTLEFTDPEVAIPLAEKLAEELGLELVEIEEREEGERPVYLVTLKVPSAGGSAGGSAGG [r11_232_JUSTAS]
folding stability dG unfold [1]: 1.52 ± 0.021 kcal/mol
folding stability dG unfold [2]: 1.61 ± 0.043 kcal/mol
folding stability dG unfold [3]: 1.63 ± 0.056 kcal/mol

SAGGSAGGSAGMTLTVTSPSSDTPIGTIELPSSLSEEELEAAVEAVRAALPPDVTVEVTGSAGGSAGGSAGG [r11_1081_JUSTAS]
folding stability dG unfold [1]: 0.954 ± 0.046 kcal/mol
folding stability dG unfold [2]: 1.13 ± 0.093 kcal/mol
folding stability dG unfold [3]: 1.41 ± 0.084 kcal/mol

SAGGSAGGSAGMTRTVTFTITDPNSSNTTTITVPTTSEQDVAAAKAALKAANPNVTITLTSAGGSAGGSAGG [r11_233_JUSTAS]
folding stability dG unfold [1]: 0.954 ± 0.092 kcal/mol
folding stability dG unfold [2]: 0.718 ± 0.076 kcal/mol
folding stability dG unfold [3]: 0.3 ± 0.12 kcal/mol

SAGGSAGGSAGMTVTTITKTYPFDPNKSLSFTVPPGATITDKKTDADIAKGTVTVTVTVASAGGSAGGSAGG [r11_701_JUSTAS]
folding stability dG unfold [1]: 0.355 ± 0.13 kcal/mol
folding stability dG unfold [2]: 0.436 ± 0.13 kcal/mol
folding stability dG unfold [3]: 0.345 ± 0.053 kcal/mol

SAGGSAGGSAGMTVTVPPDLDPESAIAALKAAAPASVKTVTLTIVDGEGPTTTVTVDITGSAGGSAGGSAGG [r17_215_JUSTAS]
folding stability dG unfold [1]: 0.209 ± 0.11 kcal/mol
folding stability dG unfold [2]: 0.00145 ± 0.096 kcal/mol
folding stability dG unfold [3]: -0.402 ± 0.18 kcal/mol

SAGGSAGGSAGMTYRVRIENADGEVVTIEISADELREKGLTLEELLPPNARIVEVEEVEPSAGGSAGGSAGG [r11_829_TrROS_Hall]
folding stability dG unfold [1]: 3.61 ± 0.063 kcal/mol
folding stability dG unfold [2]: 3.63 ± 0.09 kcal/mol
folding stability dG unfold [3]: 3.8 ± 0.16 kcal/mol

SAGGSAGGSAGMVDKKTGKPVEKVKVIIRNKNGKKEEKEVTLEELKELAENLPYEIEFEKSAGGSAGGSAGG [r17_125_TrROS_Hall]
folding stability dG unfold [1]: 0.82 ± 0.1 kcal/mol
folding stability dG unfold [2]: 1 ± 0.25 kcal/mol
folding stability dG unfold [3]: 1.16 ± 0.079 kcal/mol

SAGGSAGGSAGMVETVSTTTSVETGPDSTRYTTTTTTVLVTDSSGTPIATTTTTTTTVTASAGGSAGGSAGG [r17_139_JUSTAS]
folding stability dG unfold [1]: 0.314 ± 0.17 kcal/mol
folding stability dG unfold [2]: 0.986 ± 0.056 kcal/mol
folding stability dG unfold [3]: 1.45 ± 0.051 kcal/mol

SAGGSAGGSAGMVIELPDGRKAIIVKYDKETKRFYVEIVDKKTGEKKIYEFKSLEEALKASAGGSAGGSAGG [r17_300_TrROS_Hall]
folding stability dG unfold [1]: 2.86 ± 0.092 kcal/mol
folding stability dG unfold [2]: 2.79 ± 0.15 kcal/mol
folding stability dG unfold [3]: 2.18 ± 0.16 kcal/mol
